Results reported in the DeepSol protein solubility set.

assay: soluble on expression in E. coli; label from the status in PepcDB or PDB records

Question: For “MSLSENTTKVVQLNSHLTAPGQVTDELQSLTRMPAAFVETKDKGKQALRPLLQALFDNIDDALFELADRAEHNAEQNMFFESMREVRIKRRGMELCFGQELDNRFRLLLTDDAPRAKSSADDPRLAVDSLSLIANEELEELVAADTMIIKAEGEFTDSLSQLTTRIDTLVHPLEVTDKTNPFGPTSVCQSFVGVCKTLDMDIRAKLVLFKLFDRYVMNGLGDVYAACNEVLVNNGILPGLAKGRTTAARADSNIQQPPAASGTVDVFAQLQTLLHGLPQHTAGIETSGLVAVGQAPQIPRDTLMTLLQSVQLSLAPQLDQQLQAALQGVGPQQLDIQQSLSNLLSAKLPSKPMSIGQVESDALNLVAMLFQFILDDRNLAAPMKALIARLQIPFIKAAMIDSSFFTKGGHPARRLLNEIASASLGWVAIGIVDRDPLYAKVSSIVTRIQREFDGDSRLFQDVLTDFVAFLDMDKRRIGLVEQRTINAEDGKAKSEQARTAVQTALNERVAGLSLPKVVISLLEQAWSNVLFLIYLKEGDQAENWQEGLNVVDDLLWSVQPMDSADSRHRLVTMVPPLLKNVRAGLTKIGYNPFEMNQLFTDLEVVHLSQLQALNTVKLDMTASEGHHHHHH”, which “soluble on expression in E. coli” value is on record?
Answer: not soluble

Question: Which “soluble on expression in E. coli” value does the source give for “MTRQERILQLPFFENKRELAEQVLKMEREEHVYLPDQFEIKQVPPYSFAEKEAIIGRIHEFYFVSIGSDGAWKYQLFKDEMKCREFFVTLSGITDQQIAFWFNNIELLKGA” here?
Answer: not soluble

Question: For “KPYVSEDSRVYSPQEPTLVVKSVDNSVSIDVTSKYNVNLYRNGELIQKNVIAQSYSDTPTGFACYLAESINDKGFRSNPSQPVCVGEEIRIKLDGEYQPLKDNVSVVTVSKDSGIVKGAESFTAPVTGTYQFDAWYNNNLGQLNTGITNTVKLLEVLDDAGKVVGQGYLQMGHIGENQGMRYSTPIEVALEQGKTYQFALKDHFNMSYLTSNETYIYAGGIEGEKNEAQIADIRITPLM”, which “soluble on expression in E. coli” value is on record?
Answer: not soluble

Question: For “MGSDKIHHHHHHMLSLKNINFKGVKGINELELTLSDNPINVLIGTNGIGKTKALEALYTLLIFTNTAFQKYAMNGKDVVFNECLIANEQVIRIDNTESYTYIKQFFTNNKLSHSYPVIFIAAQNRGKIKSENSNSISPLGNADTRAYNYFRHIIRSMENDFSSLNMDMPIEEWIIQRANSSTSYQDEEDNRELELISLLKILNKIDERISCDKSTLKISGDNQVSILVDGKKTKLSALSSGFASLIKIIQSIIAGYSFFTNSRQIENVEGYVLIDEIESHLHLEWQTKILPILSEVFPYTRFIITTHSSLILSQLYTGSASRLVHEGSKIINEDIPNASNFTLIDLLQEAFDIDLNQIKISSTTAKHQERVKKAILDLLGA”, which “soluble on expression in E. coli” value is on record?
Answer: not soluble

Question: For “MNVVVERKNVRNVRIQVLADGKVRVVAPPDFDVDSFISKHADWIKKKRAEIESLAEEIKGKERMLLLNGKFYHLVKDSGFEIKEGEEVGVVKYYSLRNLKRNLASILREELKRNVSFYSRLLGINYGRIFIKMQKTKWASCSSKGNLSFNLASLALPEKLREYIVVHELVHLLEPKHSRLFWETVGFYYPEYEEAERELKKYWIFVERNEVWRMLRALK”, which “soluble on expression in E. coli” value is on record?
Answer: soluble

Question: For “MIDALLQEKITTRLIDTAPTIPVGVSNRHVHLSQQDVEALFGVGYQLTPFKPLRQPGQFAAEECVTVVGPKGSLTHVRVLGPVRPTSQLEISRADCFTLGIKAPVRESGQLENAGDALLVGPKGHVELHSQVICAWRHIHMSPQDARLLNVSNGQKVSVRSHGERQLTFDEVVVRVRNDFALELHIDTEEANAAGLKNGAQVTLIR”, which “soluble on expression in E. coli” value is on record?
Answer: not soluble

Question: For “MGSDKIHHHHHHMPFLEIRLTKESGRIYEEHSHPMLSIGVMLEGETQFFLQGEEFRLQTGMLAVIPPRMAHACNPLPSQTRSYFILHLSLDFCLEIQGRLFNEGGQNLLPLRAPRIFDPMMYQGLTSLIQSLLKGYDSLKGEAFWGWCERFFARYTLEVSSRGDALISEVAEYLEGDVEEASLAFLSKRFQINPYTLERRFKKAYGTTPKRYHTDARLHRLKKLLRQGIPLALCAQYGGFSDQSHFQRFFKRRVALTPREYQLNFVQ”, which “soluble on expression in E. coli” value is on record?
Answer: not soluble

Question: Which “soluble on expression in E. coli” value does the source give for “PNAIVNRSIPEGVDVFEISGPLFFGAASKFKDAMHVVEKAPSIRILRMRKVMSIDATGLNMLKELFNDCRKSGTTLILSGVHTQPLFAMQQYGLADEIGEENIFGNIDDALDRARSLLGLPVQGRPAGF” here?
Answer: not soluble

Question: With “MGSDKIHHHHHHMADRIEFVKNYSDLSTNKGFQFEFYCDRCGSGYRTRFKPSITGTVTGVLDTAGSLLGGLFSSAADVSERVRSASWEKSHDDAFEDACNELKPDFIQCPRCSSWVCRQKCWNKKKGLCKECAPDLGVEMAAAQASKSVEEIWAHAAMAEEDKKLGLENWRENVRASCPECEAPLASNAKFCPECGAKLKAAQFCPSCGAKVNPGSKFCAECGEKF” as the sequence, how does the “soluble on expression in E. coli” value read?
Answer: not soluble

Question: With “MGSDKIHHHHHHMSNEQLADLTQPQRDRLAFVELRVRFIGEIRRQDLVTRFGIQSAAASRDLALYKELAPGNIDYDSKGKSYVLGPDFRPVFDFPPERVLSWLTQGFGDGEPMRLKAWVASESPSRLTHPDLDVLASVTRAIHQECPLGIEYHSISSGRTEREIVPFALIDNGLRWHVRAFDRKSQEFRDFVITRIKRPVLIRDAEVQSHERSDQDIQWTRIVELEMVPHPDQPRPEITEMDYGMVRGSLRMKLRAATAGYILRQWSVDCSPDHSLRGYEFRLWLKDHLALYGVKNAVLAPGYRSPDQNKGEQ” as the sequence, how does the “soluble on expression in E. coli” value read?
Answer: not soluble

Question: Which “soluble on expression in E. coli” value does the source give for “MFPERLRALRRGQKMTLAQLAAALNQMPTADKTTRQNTAAQIGNWERDLRTPSYLEVRKLAEFFNVTTDYLSGKSDQEEYDLGRIFLSGKPLTFNQEQLSSEDRYELFQLMDGYLHGRQHRVSTDATGQEELDLHFDD” here?
Answer: not soluble

Question: With “MSELIKHSSNFLAAISPDNDCSITATNDFEAMMSWLNGYKKKPINTSRNYAREVKRYLIWLSCQGLTLAQVKIEDVYEYFNLLERPTTEWIIPDKKTDKIYPTQLIKYGGLSNRSINYTHTVLGLFYSFLQDAGYLTKNPINLVKKALEHHHHHH” as the sequence, how does the “soluble on expression in E. coli” value read?
Answer: not soluble

Question: For “MDRFDAMRAFARVVETGSFTKAADTLHMSKTSVTQLVQQLEARLRVRLLNRTTRKVNATADGAAYYERVRQLLADLEDAETSLSGASATPGGRLRVDVPSPFASTILVPALPAFQARYPDILLHLGVSDREVDLIDENVDCVIRGGQIGNLSLAARHVGDLQLGVYASPGYLARAGVPAHPRELQDAQHRIIGFSWSRARRLFPCAMRRRADERIEVAGRHALLLDEGNAYLAAGLAAMGVIGVPTYMAEAHVERGALIRLFGDWRLDPMPLYIAYPQNRHVSAKLRVFIDWIVELMARHAPVTDAPPPHRSARMPGGPAAIPTDITGA”, which “soluble on expression in E. coli” value is on record?
Answer: not soluble

Question: Which “soluble on expression in E. coli” value does the source give for “MSVCLFLRFCSLRVRCRRLMCRPGEIIHIMWSALAWRWCAVMLTGSQRYAFCNDRFHNRKITRLRNNFMPNILPTDLCANTPTLAIHDNRGFAIRTLAYNRRDHNETIGELISRNRYNASGQLIASRDPRLEVDNFRYQYSLSGVPLRTDSVDSGSTLQLADSAGRTVLTLDAHHTRRWVEYETGEHSLGRPLSYHEQAKGGLKTVTDRFFYATNSEQDKSGNLNGQCVRHYDSAGLQALINQSIIGVPLQQQRRLLTNPKGPVDWFGEKENWGARLSEQPFVSHSTTDALGQLLTQTDAKGHIQRMAYNRAGQLIGSWLTIKNSAEQVILRSLTYSAAGQKLREESGNGVITEYRYEPQTQRLIGIKTTRPAKKDRPTRLQDLRYDYDPVGNILAIHNDAEATRFYRNQKIVPETTYRYDALYQLIEATGREADTNGIQNSQLPALASLNDSNQFVNYTRSYHYDRAGNLLKIQHTGASQYSTHITVSDSSNHGIQQQEGITARDIRSQFDAAGNQQQLQPGQPLRWNSRNQLQQVEPVPRNDGISDSESYLYDGGGSRVVKTSLHKTHNAIQTRSVIYLAGLELRSQYNGNNLTEDFQVITVGAAGRAQVRVLHWERGQPVDIVNDQLRYSFDNHLGSALIELDSDGDIISQEEYYPFGGTAVLASRNTVEAKYKTVRYSGKERDATGLYYYGYRYYQPWLGRWLSADPAGTIDGLNLYRMVRNNPVGLMDGDGLMTDKLLAKHEANFAKKNISSMAELKSEIEKLGLLPADSKQLFLHLNGGESDDEPSGSSGSSGSSEILENTSPHKIKNFHFISEINLATMPRPYYKDFSSTEDMLESAERLKAYGSIDTLLTLDLTSEDIPEFTSILADKGINYIAEKQYEIIDYFSEDELSSENIDRIVNMIKTIQNNNHKVGIHCAAGNGRSGLIATAMIINKKYTQSRINSFEEKNKLKEIIDKNKNEINVDAITYDAMKLVRKTNPFAGERTTDIKAAREYSRYLYSKQNR” here?
Answer: not soluble

Question: For “MSLKITDLRVAVVSRAPMTCPIIRIDTNQGIYGLGEVRDGASKNYALMLKSRLLNENPCNVDKLFRKIKQFGGHARQGGGVCGVEMALWDLAGKAYNVPVHQMLGGKFRDRIRCYADTTESHDPKVYGQRLKARRDEGFTWLKMDLGVDLVADVPGALTMPVGERINGNPMVAHMFTGNEITEKGIQLMCDYVAQIREIVGMDIPLSADHFGHIGVNSCIRLGKALTKYNMAWLEDMIPWQQTALLKQIADAVDIPILTGEDIYLKEPFIELCKAHAVDIIHPDLATSGGILETKKIGDAAQELGVAMAMHFAGSPVSCMANVHCAAATENFLVLENHSVDVPWWGDLVEGVSKPIVSKGFITVPNGPGLGVTLNDEVVKQHLGEPGYFEATPYWNVDRSNDRQWSEGHHHHHH”, which “soluble on expression in E. coli” value is on record?
Answer: not soluble

Question: Which “soluble on expression in E. coli” value does the source give for “MAHHHHHHMASGGSVIGVKYNGGVLLACDTLLSYGSLAKWPNIPRMKLVGAYTVMCATGDYADFQEMTTMIENHVNRQQMYGGGALTPNEVFCYLQRHVYHKRSQFEPCLCRFVVAGCHGGEPFLGGVDDVGTRWTDDCVAAGYGAYIALPLLRQALEKPGGLTREEAIRVIKDCLRVLFYRECRAINKFQIADATSDMVSIGEPFEVETNWEYDGFCFEKTAIIR” here?
Answer: not soluble

Question: With “MNYYMHHIGDYKSDASYLSLQEHGIYFLLLSHYYATEKPIPADKTHTYRIAYARTKKEKSAVDFVLDTFFSLQEDGWHNKRCDEEIAAYKEGDAWHEHKEANKNGQNTRTRRHRKERSRLFAELKDHQVTPEWNMPIKELRLLHKKTCHAPVTAVTPPVTPVTPVTPVTPVTPTQEESFTGPSSSLRSEERLIRAENETSIKELRQWNAKTNAKTGNAPVTAVTAKPLTINPLTIISSSLCSEESLVFAEDGNATGSTGKPKRSPHGSRLPDD” as the sequence, how does the “soluble on expression in E. coli” value read?
Answer: not soluble

Question: For “MKTTLFYIMFAYALSTAFPSMMLAQASSIAEVNQGQASKMVIDSSARVLSTLEQQRAQFRQDPKALRQFMETEFTTIFDRDYAARLVLGKYARNASDTDVKLFADAITENLMQRYGNALLTFEGKPNFRAKSESRLPGNRNVRVSTELIRSGADPVAVDYLLRNVNGQWKIFDVMIEGISYVQTFRNQFDAPLRQKGIAQVAAELRSGNLQVGKSNGKAAALEHHHHHH”, which “soluble on expression in E. coli” value is on record?
Answer: soluble

Question: For “MPTFLELNTTISVKEKELLTKEQFDKLLQAPNTTTLARLLHQSVYHLTVDDLNDLDRLESILMAELTKTYRWAFAETPQPDIVQLFTLRYTYHNVKVLLKAKASQADLSHLLLPIGDKPLVALEHLIRTMTSDEFPKEVVTEIQSIWAEYQDYQDIRVLEIGTDLAYFKALKQIAQRLEDPVFQQAVLIVIDLYNLITVRRAKSQNKPISFMMQLLSDEASRPSKTFITLEDDKDLMTWFENVTPDSYMTALKPYSEKLRQGTLQTTELEYLVDECLYHLFAKAKYQVDGPYVLARFLLAKSFEVKNLRLLAAALANDLPKERVIERMRPIA”, which “soluble on expression in E. coli” value is on record?
Answer: not soluble
